From patent publication US20260117212, “OPTIMIZED ENGINEERED MEGANUCLEASES HAVING SPECIFICITY FOR THE HUMAN T CELL RECEPTOR ALPHA CONSTANT REGION GENE” (Precision BioSciences, Inc., published 2026) come the findings set out here.

The target of series [1] is T1, TRC 1-2L.1592 meganuclease (synthetic construct).
T1 chain: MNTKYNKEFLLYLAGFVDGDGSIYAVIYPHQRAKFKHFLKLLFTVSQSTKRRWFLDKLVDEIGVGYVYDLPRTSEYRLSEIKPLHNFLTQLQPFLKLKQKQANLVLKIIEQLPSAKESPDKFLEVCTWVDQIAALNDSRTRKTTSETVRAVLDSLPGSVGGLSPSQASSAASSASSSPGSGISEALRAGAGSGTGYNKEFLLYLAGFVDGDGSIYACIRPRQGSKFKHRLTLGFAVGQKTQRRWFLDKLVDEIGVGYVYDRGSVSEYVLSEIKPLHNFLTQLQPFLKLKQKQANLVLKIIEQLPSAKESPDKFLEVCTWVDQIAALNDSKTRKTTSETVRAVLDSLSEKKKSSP
In words: cell_activity; CD3 knockout in primary human T cells; EC90 0.545 ug. As to the method: (§1) In this study, an apheresis sample was drawn from a healthy, informed, and compensated donor, and the T cells were enriched using the CD3 positive selection kit II in accord with the manufacturer's instructions (Stem Cell Technologies). T cells were prepared for editing by stimulating with ImmunoCult anti-CD3/CD28/CD2 (Stem Cell Technologies) for three days in Xuri medium (GE Healthcare) supplemented with fetal bovine serum to 5% (Gemini Bio) and recombinant human IL-2 to 10 ng/ml (Gibco). Stimulated T cells were harvested and counted (Countess II, ThermoFisher) before electroporation was carried out on the Lonza 4-D NucleoFector using a titrated range of mRNA encoding TRC 1-2L.1592 or TRC 1-2L.2307. The concentrations used for this study were 2, 1, 0.5, 0.25, 0.125, and 0.0625 μg of RNA per 1×10⁶ stimulated T cells. Cells were subsequently cultured as above with IL-2 supplemented to 30 ng/ml.
(§2) Using cell counts and frequency of TRAC-edited CAR+ events, the number of CAR T cells produced using each TRC1-2 variant were calculated and plotted in FIG. 7. GraphPad Prism was used to calculate EC50 and EC90 values for TRC 1-2L.1592 (FIG. 7A), and TRC 1-2L.2307 (FIG. 7B).

In series [2] the target is T2, TRC 1-2L.2307 meganuclease (synthetic construct).
T2 chain: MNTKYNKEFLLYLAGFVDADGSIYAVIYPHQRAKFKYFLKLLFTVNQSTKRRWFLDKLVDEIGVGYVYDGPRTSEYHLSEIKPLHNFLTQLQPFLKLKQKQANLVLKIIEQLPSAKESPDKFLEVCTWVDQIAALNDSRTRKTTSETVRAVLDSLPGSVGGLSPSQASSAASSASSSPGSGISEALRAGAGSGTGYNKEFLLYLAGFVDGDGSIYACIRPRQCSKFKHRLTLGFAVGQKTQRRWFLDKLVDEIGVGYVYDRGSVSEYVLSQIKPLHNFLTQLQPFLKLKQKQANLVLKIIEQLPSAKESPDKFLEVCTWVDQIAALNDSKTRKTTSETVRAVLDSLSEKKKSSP
In words: cell_activity; CD3 knockout in primary human T cells; EC90 0.354 ug. As to conditions: tags: N-terminal SV40 NLS (mRNA delivered). The method, then:
as §1, §2

B1: TRC 1-2 recognition sequence (dsDNA)
DNA 1: TGGCCTGGAGCAACAAATCTGA
DNA 2: TCAGATTTGTTGCTCCAGGCCA
For B1, the EC50 is 0.372 ug mRNA per 1e6 cells in series [1] and 0.179 ug mRNA per 1e6 cells in series [2].
